Assay results taken from patent US20080187528A1 (FUNCTIONAL GENETICS, published 2008).

Molecular target: T1, Ebola VP40 (1-326) (Ebola virus (EBOV), UniProt Q05128 1-326)
T1 sequence: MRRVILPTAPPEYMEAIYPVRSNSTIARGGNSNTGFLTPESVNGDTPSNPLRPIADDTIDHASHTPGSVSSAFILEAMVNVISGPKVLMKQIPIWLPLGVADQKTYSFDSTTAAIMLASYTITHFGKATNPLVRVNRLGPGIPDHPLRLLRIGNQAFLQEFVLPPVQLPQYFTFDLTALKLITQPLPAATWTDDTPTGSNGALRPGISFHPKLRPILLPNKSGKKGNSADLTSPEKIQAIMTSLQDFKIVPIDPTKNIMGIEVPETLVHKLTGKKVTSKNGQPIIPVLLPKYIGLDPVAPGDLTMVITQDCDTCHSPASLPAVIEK
Experiment: co-immunoprecipitation with anti-Myc antibody from 293T lysates

B1: TSG101 1-140 truncated mutant, C-terminally tagged with a Myc epitope (other)
chain: MAVSESQLKKMVSKYKYRDLTVRETVNVITLYKDLKPVLDSYVFNDGSSRELMNLTGTIPVPYRGNTYNIPICLWLLDTYPYNPPICFVKPTSSMTIKTGKHVDANGKIYLPYLHEWKHPQSDLLGLIQVMIVVFGDEPP
notes: Expressed in 293T cells
binding result: no binding
